Experimental findings from patent US20110293610A1 (published 2011) are described below.

The target of experiment [1] is T1, HIS-tagged B Lymphocyte Stimulator (human, UniProt Q9Y275 71-285).
T1 construct: Expressed in E. coli from pQE9 and purified; also called histidine-tagged B Lymphocyte Stimulator; HIS-B Lymphocyte Stimulator; not shown: histidine tag of the pQE9 vector
The experiment in a line: BIAcore, periplasmic scFv on high density HIS-BLyS surface. Here is the method:
(§1) All BIAcore analysis was performed on BIAcore 2000 machines, using the BIAcore 2000 control software and evaluated using the BIAevaluation 3.0 software. A high density His-tagged B Lymphocyte Stimulator surface (>1000 RU HIS-B Lymphocyte Stimulator coupled) was prepared in flow cell 2 by amine coupling to a CM5 chip. A new CM5 chip was inserted into the BIAcore and a sensorgram started over flow cell 2 with HBS buffer at a flow rate of 5 μl/min. The NHS and EDC solution were mixed 1:1 before injecting 30 μl over the CM5 surface. Fifty μl HIS-B Lymphocyte Stimulator (at 10 μg/ml in Sodium acetate buffer, pH4) was injected and allowed to couple to the surface. Thirty μl of ethanolamine-HCl solution was then injected to block free NHS esters. Prior to using the chip, 10 μl of 4M Guanidine hydrochloride in HBS was injected over the surface to strip the surface of non-covalently bound B Lymphocyte Stimulator. A blank surface (no HIS-B Lymphocyte Stimulator) was also prepared over flow cell 1 so that non-specific binding effects can be subtracted from the HIS-B Lymphocyte Stimulator binding curves.
(§2) The 96-well plate containing periplasmic scFvs was secured inside the BIAcore. Two ml of 4M Guanidine hydrochloride in HBS was placed in a rack inside the BIAcore for regeneration of the HIS-B Lymphocyte Stimulator surface between samples. The sensorgram was run over flow cells 1 and 2 at a flow rate of […].
On the technique in general: In SPR one partner is held on a chip, and binding of the other changes the refractive index at the surface.
T1 sequence (Q9Y275 71-285): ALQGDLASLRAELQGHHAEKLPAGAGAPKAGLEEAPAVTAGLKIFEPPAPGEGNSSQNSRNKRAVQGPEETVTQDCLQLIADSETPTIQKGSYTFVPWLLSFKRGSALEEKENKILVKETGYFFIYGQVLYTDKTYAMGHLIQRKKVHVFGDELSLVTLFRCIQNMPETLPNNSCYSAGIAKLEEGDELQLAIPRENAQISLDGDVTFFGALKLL

In experiment [2] the target is T2, HIS-tagged B Lymphocyte Stimulator (human, UniProt Q9Y275 71-285).
T2 construct: Expressed in E. coli; also called HIS-B Lymphocyte Stimulator; histidine-tagged B Lymphocyte Stimulator; not shown: histidine tag from the pQE9 vector
The experiment in a line: BIAcore, periplasmic scFv over high density HIS-BLyS surface. The procedure: as §1, §2
T2 sequence (Q9Y275 71-285): as above

Positions count from the first letter of the chain named.

B1: I079B05 (scFv)
scFv: GVQLVESGGGLVKPGGSLRLSCATSGFRFSDYAMTWVRQAPGKGLEWVSSITGSGGGTHYAGSVRGRFTISRDNSKNTVYLQMNNLRPEDTAVYYCASFVLDYWGKGTLVTVSSGGGGSGGGGSGGGGSQSVLTQPASVSGSPGQSITISCTGTSSDVGGYNYVSWYQQHPGKAPKLMIYEGSKRPSGVSNRFSGSKSGNTASLTISGLQAEDEADYYCSSYTTRSTRVFGGGTKLTVLG
For B1, in experiment [1], the binding result is “binds”.

B2: I080G07 (scFv)
scFv: QVQLVQSGAEVKKPGASVKVSCKASGYTFTSYAMHWVRQAPGQRLEWMGWINAGNGNTKYSQKFQGRVTITRDTSASTAYMELSSLRSEDTAVYYCAREGPGYYYGMDVWGQGTMVTVSSGGGGSGGGGSGGGGSALETTLTQSPGTLSLSPGERATLSCRASQAIGSNYLAWYQQKPGQPPSLLIYGASSRATGIPDRFSASGSGTDFTLTISRLEPEDFAVYYCQQYGSSITFGQGTRLEIKR
On to B2, for which, in experiment [2], the binding result is on record as “binds”.

B3: I079F06 (scFv)
scFv: QVQLVESGGGLVQPGGSLRLSCAASGFTFSSYWMSWVRQAPGKGLEWVANIKQDGSEKYYVDSVKGRFTISRDNAKNSLYLQMNSLRAEDTAVYYCARDNLHAAFDIWGRGTLVTVSGGGGGSGGGGSGGGGSDIQMTQSPSTLSASIGDRVTITCRASEGIYHWLAWYQQKPGKAPKLLIYKASSLASGAPSRFSGSGSGTDFTLTISSLQPDDFATYYCQQYSNYPLTFGGGTKLEIKR
Consider B3, for which the binding result in experiment [1] is “binds”.

B4: I079B12 (scFv)
scFv: EVQLVQSRGGVVQPGRSLRLSCAASGLTFSSYGMHWVRQAPGKGLEWVAVISYDGRNKYYADSVKGRFTTSRDNSKNTLYLQMNSLRAEDTAVYYCAKWTSSGAFDIWGRGTLVTVSSGGGGSGGGGSGGGGSDIQMTQSPSTLSASIGDRVTITCRASEGIYHWLAWYQQKPGKAPKLLIYKASSLASGAPSRFSGSGSGTDFTLTISSLQPDDFATYYCHQYSNYPLTFGGGTKLEIKR
Consider B4, for which the binding result in experiment [1] is listed as “binds”.

B5: I079B12 (scFv)
scFv: B4 scFv
As to B5, the binding result in experiment [2] is “binds”.

B6: I082D07 (scFv)
scFv: B4 scFv with H222Q
As for B6, the binding result in experiment [2] is “binds”.

B7: I082D07 (scFv)
scFv: B4 scFv with H222Q
For the molecule B7, the binding result in experiment [1] is “binds”.

B8: I084C11 (scFv)
scFv: GVQLEESGAEVKKPGASVKVSCKASGYTFTGYYMHWVRQAPGQGLEWMGWINPNSGGTNYAQKFQGRVTMTRDTSISTAYMELSRLRSDDTAVYYCARGNAWGAFDIWGRSTLVTVSSGGGGSGGGGSGGGGSQSVLTQPASVSGSPGQSITISCTGTSSDVGGYNYVSWYQQHPGKAPKLMIYEGSKRPSGVSNRFSGSKSGNTASLTVSGLQAEDEADYYCSSYTTRSTRVFGGGTKLTVLG
With B8, in experiment [2], the binding result was “binds”.

B9: I080D03 (scFv)
scFv: QVQLVQSGAELKQPGTSVKVSCKASGYSFSSYGVTWVRQAPGQGLEWMGWVSGNRGNTQYAQKFQDRVRMTTDTSTSTAYMELRSLRPDDTAVYFCARVGIKAAAVDNFEYWGRGTTVTVSSGGGGSGGGGSGGGGSAQSVLTQPPSASGTPGQRVTITCSGSSSNIGDYYVNWYQQVSGTTPKLIIYRDDQRPSGVPDRFSGSKSGASASLAISGLRSEDEANYFCAAWDDSLREFAFGTGTKVTVLG
Consider B9, for which the binding result in experiment [2] is on record as “binds”.

B10: I083G03 (scFv)
scFv: B9 scFv with A92D
B10: the binding result in experiment [2] was “binds”.

B11: I080A03 (scFv)
scFv: QVQLQQSGAELKQPGTSVKVSCKASGYSFSCYDVNWVRQAPGQGLEWMGRINPNSGNTHYAQKFQDRVTMTTDTSTSTAYMELNSLRPDDTAVYFCARVGIKAAAVDNFEYWGRGTTVTVSSGGGGSGGGGSGGGGSAQSVLTQPPSASGTPGQRVTITCSGSSSNIGDYYVNWYQQVSGTTPKLIIYRDDQRPSGVPDRFSGSKSGASASLAISGLRSEDEANYFCAAWDDSLREFAFGTGTKVTVLG
Regarding B11, the binding result in experiment [2] is “binds”.

B12: I080B01 (scFv)
scFv: QVQLVQSGAEVKKPGASVKVSCKASGYTFTNYYMHWVRQAPGQGLEWMGIINPRDVSTTYAQKFQGRATMTRDTSTSTVYMELNSLRSEDTAVYYCAREYSGYHYVEGGSYAMDVWGQGTMVTVSSGGGGSGGGGSGGGGSALSYVLTQPPSASGTPGQRVTITCSGSSSNIGNYYVNWYQQVSGTAPKLIIYRNNQRPSGVPDRFSGSKSGASASLAISGLRSEDEADYFCAAWDDSLREFVFGTGTKVTVLG
With B12, in experiment [2], the binding result is given as “binds”.

B13: I082A05 (scFv)
scFv: QVQLQQSGGGVVQPGRSLRLSCAASGFTYSSYAMHWVRQAPGKGLEWVAVISYDGSIKYYADSVKGRFTISRDNSKNTLYLQMNSLRAEDTAVYYCARDLDFDYWGKGTLVTVSSGGGGSGGGGSGGGGSQSVLTQPPSVSAAPGQKVTISCSGSTSNIGNNYVSWYQQHPGKAPKFMIYDVSKRPSGVSNRFSGSKSGNTASLTISGVQAEDEADYYCSSYTSASTVIFGGGTKLTVLG
As for B13, in experiment [2], the binding result is listed as “binds”.

B14: I084B02 (scFv)
scFv: QVQLVQSGGGLVQPGGSLRLSCAASGFTFSSYEMNWVRQAPGKGLEWVSYISSSGSTTYYADSVKGRFTISRDNAKNSLYLQMNSLRAEDTAVYYCARDTTDYWGQGTLVTVSSGGGGSGGGGSGGGGSDIVMTQSPSTLSASVGDRVTITCRASQGISSWLAWYQQKPGRAPKVLIYKASTLESGVPSRFSGSGSGTDFTLTISSLQPEDFATYYCQQSYSTPWTFGQGTKLEIKR
Take B14: in experiment [2], the binding result was “binds”.

B15: I080A08 (scFv)
scFv: QVTLKESGGDLVQPGGSLRLSCAASGLTFMSYAMTWVRQAPGKGLEWVSSISGSGDNTYYGDSVRGRFTISRDNSKNTLFLQLNSLRAEDTAFYYCAKVHSTGYAFENWGRGTLVTVSSGGGGSGGGGSGGGGSAQSVLTQPPSVSGAPGQRVTISCTGSSSNIGAGYNVHWYQQLPGTAPRLLISSNTNRPSGVPDRFSGSKSGTSASLAITGLQAEDEADYYCQSYDSSLSGFVFGTGTKVTVLG
For B15, in experiment [2], the binding result was “binds”.

B16: I080G09 (scFv)
scFv: QVQLVQSGAEVKKPGASVRVSCKSSGYTFTNYGISWVRQAPGQGLEWMGWISNNNGKTYYAQKVQGRVTMTTDTSTSTDYMELRGLRSDDTAIYYCARDNGGGTIGFDYWGQGTLVTVSSGGGGSGGGGSGGGGSAQSVLTQPPSVSGAPGQRVTISCTGSSSNIGADYDVHWYQLLPGTAPKLLIYGNTNRPSGVPDRFSGSKSGTSASLTIAGLQAEDEADYYCQSYDSSLSGSVVFGGGTKLTVLG
B16: in experiment [1], the binding result was “binds”.

B17: I080G09 (scFv)
scFv: B16 scFv
For the molecule B17, the binding result in experiment [2] is “binds”.

B18: I082B08 (scFv)
scFv: QVQLVQSGAEVKKPGGSVKVSCKASAYTFTRYYMHWVRQAPGQGLEWMGIINPSGGRTSYAQKFQGRVTMTRDTSTSTVYMELSSLRSEDTAVYYCARDLGIAGTIYFDYWGKGTLVTVSSGGGGSGGGGSGGGGSQSVLTQPPSVSAAPGQKVTISCSGSTSNIGNNYVSWYQQHPGKAPKLMIYDVSKRPSGVPDRFSGSKSGNSASLDISGLQSEDEADYYCAAWDDSLSEFLFGTGTKLTVLG
Turning to B18, the binding result in experiment [2] is “binds”.

B19: I084A01 (scFv)
scFv: QVQLVQSGGGLVQPGGSLRLSCAASGFTFSSYEMNWVRQAPGKGLEWVSYISSSGSTTYYADSVKGRFTISRDNAKNSLYLQMNSLRAEDTAVYYCARDTTDYWGQGTMVTVSSGGGGSGGGGSGGGGSQSVLTQPPSASGTPGQRVTISCSGSSSNIGSNTVNWYQRLPGAAPQLLIYNNDQRPSGIPDRFSGSKSGTSGSLVISGLQSEDEADYYCASWDDSLNGRVFGGGTKLTVLG
Take B19: in experiment [2], the binding result is “binds”.
